# Data: paper PMC8453653, “Kinetic Characterization of a Putatively Chitin-Active LPMO Reveals a Preference for Soluble Substrates and Absence of Monooxygenase Activity” (ACS Catalysis, 2021)
# B1: AfAA11B (Aspergillus fumigatus Af293) (protein)
# chain: HMKMRQPTPYSDSSLNNSPLAADGSDFPCKLRDNAFVPPSQETIAQIGEVMPLTFTGSATHGGGSCQVSLTTDLKPSKDSKWMVIKSIEGGCPANVDGNMSGGADVPDPFEFNYTIPAGIEPGKYTLAWTWFNRIGNREMYMNCAPITVTAGSSKRDAAPVAEKVEVEKRSANFPAMFVANINGCTTKEGVDIRFPDPGDVVEYDGNPSNLQPAGEAACSGTPAWTVSGGSGSPSTPSTSSSTPAGTSAGVSVSVGATVGATPTAEPESSSSEPAESEGAPGVFAPTSATVFPSTPTASAAPTSSSSGAGSESDSSSSSNGALTGPCSTEGLWNCIDGSSFQRCANGQWTTAQQMAAGTECTVGQNAQFTISATAVKPRMINAMRHRKRAHGGHRHA
# notes: gene 1257 bp; expressed in Pichia pastoris (PichiaPink Strain 4), no tag mentioned; copper-saturated
# Substrate: O=C1O[C@H]([C@@H](O)CO)C(O)=C1O
# Assay: initial rates of oxidized product formation by HPAEC-PAD, Michaelis-Menten fit
# Assay type: biochemical, Aspergillus fumigatus
# Conditions: reductant (apparent half-saturating concentration), 1 μM LPMO, 1 mM H2O2, 2 mM (GlcNAc)4, aerobic, 50 mM bis-tris/HCl pH 6.5, 37 °C
# Description: initial rates of oxidized product formation by HPAEC-PAD, Michaelis-Menten fit on AfAA11B
protein,measurement,value
B1,Km,502 ± 35 µM
same,kcat,3.9 ± 0.2 s^–1
